From patent publication US20250145722A1, “ANTI-GAL3 ANTIBODIES AND METHODS OF USE” (TrueBinding, Inc., priority 2020, published 2025)
Where a chain is given by its changes, count along the chain named.

Assays:
[1] = target: human Galectin-3 (Gal3), full-length recombinant (human) (UniProt P17931); experiment: blocking ELISA, Gal3 coated, biotin-APP695
[2] = target: human Galectin-3 (Gal3), full-length recombinant (human) (UniProt P17931); experiment: blocking ELISA, Gal3 coated, biotin-Tau aggregates
[3] = target: human Galectin-3 (Gal3), full-length recombinant (human) (UniProt P17931); experiment: blocking ELISA, Gal3 coated, biotin-Abeta42 peptide
[4] = target: human Galectin-3 (Gal3), full-length recombinant (human) (UniProt P17931); experiment: blocking ELISA, Gal3 coated, biotin-Abeta42 oligomer
[5] = target: human Galectin-3 (Gal3), full-length recombinant (human) (UniProt P17931); experiment: blocking ELISA, Gal3 coated, biotin-α-synuclein aggregates
[6] = target: human Galectin-3 (Gal3), full-length recombinant (human) (UniProt P17931); experiment: blocking ELISA, Gal3 coated, VEGFR3-Fc, antibody 20 µg/ml
[7] = target: human Galectin-3 (Gal3), full-length recombinant (human) (UniProt P17931); experiment: blocking ELISA, Gal3 coated, PDGFR alpha-Fc, antibody 20 µg/ml
[8] = target: human Galectin-3 (Gal3), full-length recombinant (human) (UniProt P17931); experiment: blocking ELISA, Gal3 coated, PDGFR beta-Fc, antibody 20 µg/ml
[9] = target: human Galectin-3 (Gal3), full-length recombinant (human) (UniProt P17931); experiment: blocking ELISA, Gal3 coated, biotin-TLR4
[10] = target: human Galectin-3 (Gal3), full-length recombinant (human) (UniProt P17931); experiment: blocking ELISA, Gal3 coated, TREM2-His
[11] = target: human Galectin-3 (Gal3), full-length recombinant (human) (UniProt P17931); experiment: blocking ELISA, Gal3 coated, EGFR-Fc, antibody 20 µg/ml
[12] = target: cynomolgus Gal3 (cynomolgus); experiment: not stated (FIG. 50)

Chain of human Galectin-3 (Gal3), full-length recombinant (human) (P17931 2-250 limits assumed): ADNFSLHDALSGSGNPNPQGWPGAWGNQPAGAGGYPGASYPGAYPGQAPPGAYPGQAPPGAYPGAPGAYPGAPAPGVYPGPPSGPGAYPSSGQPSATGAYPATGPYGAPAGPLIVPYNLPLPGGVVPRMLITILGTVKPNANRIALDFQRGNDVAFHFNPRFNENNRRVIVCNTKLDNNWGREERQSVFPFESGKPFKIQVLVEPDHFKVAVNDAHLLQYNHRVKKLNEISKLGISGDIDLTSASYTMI

B1: 12G5.D7 (antibody, from a related filing, V domains shown)
VH: QVQLKQSGAELVRPGASVKLSCKASGYTFTDYYINWVKQRPGQGLEWIARIYPGTGNTDYNEKFKGRATLTAEKSSSTAYMQLSSLTSEDSAVYFCARFAYYYGSGGYFDYWGHGTTLTVSS
VL: DILMTQSPSSMSVSLGDTVSITCHASQGINSNMGWLQQKPGKSFKGLIYHATNLEDGVPSRFSGSGSGADYSLTISSLESEDFADYYCVQYAQFPPTFGSGTKLEIK
% blocking of Gal3-APP695 binding [1]: > 86%
% blocking of Gal3-Tau aggregates binding [2]: < 50%
% blocking of Gal3-Abeta42 peptide binding [3]: < 46%
% blocking of Gal3-Abeta42 oligomer binding [4]: < 26%
% blocking of Gal3-α-synuclein aggregates binding [5]: < 50%

B2: 7D8.2D8 (antibody, mouse IgG2a, V domains shown)
VH: EVQLVESGGGLVKPGGSLKLSCAASGFTFSSYAMSWVRQTPEKRLEWVATISDGGIYTYYPDNVKGRFTISRDNAKNNLFLQMSHLKSEDTAMYYCVRDGGYWGQGTTLTVSS
VL: DVLMTQTPLSLPVSLGDQASISCRSSQSIVHSNGNTYLEWYLQKPGQSPKLLIYKVSNRFSGVPDRFSGSGSGTDFTLKISRVEAEDLGVYYCFQGSHVPLTFGAGTKLELKR
% blocking of Gal3-APP695 binding [1]: > 90%
% blocking of Gal3-VEGFR3 binding [6]: < 30%
% blocking of Gal3-PDGFR alpha binding [7]: < 30%
% blocking of Gal3-PDGFR beta binding [8]: < 30%
% blocking of Gal3-TLR4 binding [9]: > 90%
% blocking of Gal3-TREM2 binding [10]: > 90%
% blocking of Gal3-EGFR binding [11]: < 30%

B3: 15F10.2D6 (antibody, mouse IgG2a, V domains shown)
VH: B2 VH with T28A, I56V, P61T, N63H, K76E, N77D, F80Y
VL: B2 VL with S32N, A105G
% blocking of Gal3-APP695 binding [1]: > 90%
% blocking of Gal3-Tau aggregates binding [2]: < 50%
% blocking of Gal3-TLR4 binding [9]: > 90%
% blocking of Gal3-TREM2 binding [10]: > 90%

B4: TB001 (antibody, IgG4, V domains shown)
VH: QVQLVQSGSELKKPGASVKVSCKASGYTFTNYGMNWVRQAPGQGLKWMGWINTNTGEPTYVEEFTGRFVFSLETSVSTAYLQISSLKAEDTAVYFCAPYDNFFAYWGQGTTVTVSS
VL: DIVLTQSPLSLPVTPGEPASISCRSSKSLLYKDGKTYLNWFLQKPGQSPQLLIYLMSTHASGVPDRFSGSGSGTDFTLKISRVEAEDVGVYYCQQLVDYPLTFGGGTKLEIKR
Kd [12]: 8.9 nM

B5: TB006 (antibody, V domains shown)
VH: QVQLVQSGAEVKKPGASVKVSCKASGYSFTNYYMHWVRQAPGQRLEWMGWIYPGSGNTNYNEKFQGRVTITADTSASTAYMELSSLRSEDTAVYYCSTAPGGFDVWGQGTTVTVSS
VL: DIVMTQTPLSLSVTPGQPASISCKSSKSLLHSDGITYLYWYLQKPGQSPQLLIYRMSNLASGVPDRFSGSGSGTDFTLKISRVEAEDVGVYYCAQMLEFPLTFGQGTKLEIKR
Kd [12]: 5.1 nM
